Assay results reported in patent US20170122849.

System: (KW)2KKA-eGFP-AKK(WK)2 (DNA-staining eGFP) (synthetic construct (eGFP from Aequorea victoria?))
Assay: EMSA
Conditions: about; apparent Kd; TE/glycerol, 0.5x TBE 4-20% gel, EtBr stain

## CTACTAGCACAATCGACTGTACGGACCGATCGAGTCACTAGCAGTCTAGCAA (double strand) [52-mer random sequence dsDNA]
  Kd: 14.7 µM
